Each block holds one molecule with its values, some of them ahead of it.
What was measured:
[1] = biological target: T1, constitutive androstane receptor (hCAR1) (Homo sapiens, UniProt Q14994); assay: SPR; type: binding
T1 sequence (Q14994 109-352 limits assumed): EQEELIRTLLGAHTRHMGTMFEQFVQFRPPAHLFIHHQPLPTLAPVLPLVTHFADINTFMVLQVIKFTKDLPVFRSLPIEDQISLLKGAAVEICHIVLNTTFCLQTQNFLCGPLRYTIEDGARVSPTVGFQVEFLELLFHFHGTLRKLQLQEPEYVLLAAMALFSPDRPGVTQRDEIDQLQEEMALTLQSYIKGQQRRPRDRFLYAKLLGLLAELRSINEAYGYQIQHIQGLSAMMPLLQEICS

[2] = biological target: GAL4DBD-NCoR fusion (nuclear receptor co-repressor); assay: two-hybrid
[3] = biological target: GAL4DBD-SMRT fusion (silencing mediator for retinoid or thyroid hormone receptors); assay: two-hybrid
[4] = biological target: T2, human CAR ligand-binding domain (hCAR1-LBD), purified (human); assay: HDX-MS
T2 chain: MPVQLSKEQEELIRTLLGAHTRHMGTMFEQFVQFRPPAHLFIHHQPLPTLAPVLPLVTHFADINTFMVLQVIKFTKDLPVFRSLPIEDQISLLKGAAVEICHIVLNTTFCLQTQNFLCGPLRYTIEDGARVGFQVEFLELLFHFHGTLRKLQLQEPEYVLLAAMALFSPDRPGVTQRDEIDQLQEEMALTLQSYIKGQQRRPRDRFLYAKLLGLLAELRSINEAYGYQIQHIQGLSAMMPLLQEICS

Molecule: VP16AD-hCAR1 F217A (full length) (receptor)
loss of interaction [2]: 75% | loss of interaction [3]: 50%

B1: NCoR1-3 cofactor peptide (peptide)
peptide: ASNLGLEDIIRKALMGSFD
binding result [4]: binds

Results, then the molecule that gave them:

Kd [1]: ~548 µM
Molecule: CCOC(=O)Nc1ccc2c(c1)N(C(=O)CN(CC)CC)c1ccccc1CC2 [CINPA1]

loss of interaction [2]: 75% | loss of interaction [3]: 50%
Molecule: VP16AD-hCAR1 Y224A (full length) (receptor)
